Laboratory results reported in patent US8252764B2, “Compositions and methods of use of targeting peptides against placenta and adipose tissues” (priority 2000, dated 2012).
Bridge positions count the residues as written; N and C are the ends. Square brackets hold non-standard residues; d marks the D form. Ends that are not written are not given here. Peptide text beside a SMILES is read from it. * marks the point of attachment. Cbz = O=C(OCc1ccccc1)*; CH2F = FC*

Legend:
[1] = system: fat vasculature; assay type: in vivo
Method: FIG. 10. Treatment of mouse obesity with fat vasculature-targeted apoptosis. Three cohorts (n=3) of (A) high-fat cafeteria diet-fed obese c57bl/6 mice; or (B) regular diet-fed old (˜1 year) c57bl/6 mice were each subcutaneously injected daily with equimolar amounts of the indicated peptides. Mouse body mass measurement was taken on days when injections were performed (injections were skipped on days for which body mass measurement is not shown). Error bars are SEM for the measurements in three mice.
FIG. 11. Fat resorption induced by fat vasculature-targeted apoptosis. (A) Representative high-fat cafeteria diet-fed obese c57bl/6 mice; (B) and (C) representative regular diet-fed old (˜1 year) c57bl/6 mice; or (D) epididymal fat from representative regular diet-fed old c57bl/6 mice from the experiment described in FIG. 10. Whole mice (A), subcutaneous fat (B), peritoneal fat (C) and total epididymal fat (D) from the corresponding indicated treatments were photographed 1 week (A) or 3 weeks (B), (C) and (D) after the beginning of subcutaneous injections. The injected peptides were […] (SEQ ID NO:22) linked to (KLAKLAK)2 (SEQ ID NO:1) (left column), CARAC (SEQ ID NO:12) linked to (KLAKLAK)2 (SEQ ID NO:1) (middle column), and […] (SEQ ID NO:22) co-administered with (KLAKLAK)2 (SEQ ID NO:1) (right column).
FIG. 12. Destruction of fat blood vessels as a result of targeted apoptosis. (A) Tunnel immunohistochemistry, (B) secondary antibody only negative tunnel staining control and (C) and (D) hematoxylin/eosin staining of white fat of mice. (A), (B) and (C) Mice were treated with […] (SEQ ID NO:22) linked to (KLAKLAK)2 (SEQ ID NO:1). (D) Mice were treated with CARAC (SEQ ID NO:12) linked to (KLAKLAK)2 (SEQ ID NO:1). Apoptosis (arrows, (A)) and necrosis/lymphocyte infiltration (arrows, (C)) in response to […] (SEQ ID NO:22) linked to (KLAKLAK)2 (SEQ ID NO:1) treatment are indicated. Bar: 10 μm.
Stocks of […] (SEQ ID NO:22) fused to (KLAKLAK)2 (SEQ ID NO:1); (KLAKLAK)2 (SEQ ID NO:1) alone; CARAC (SEQ ID NO:12) fused to (KLAKLAK)2 (SEQ ID NO:1); and […] (SEQ ID NO:22) peptide were chemically synthesized, cyclized using the terminal cysteines and HPLC-purified to >90% (Anaspec). Lyophilized peptides were dissolved in DMSO to a concentration of 65 mM to make stock solutions. A total of 150 μl of 0.65 mM peptide solution in PBS was subcutaneously injected daily in the back of C57BL/6 males, after body mass was measured each day. High-fat cafeteria diet for obesity induction (TD97366: 25.4% fat, 21.79% protein, 38.41% carbohydrate) was purchased from Harlan Teklad. Mice were pre-fed with TD97366 prior to the initiation of treatment with adipose targeting peptides to induce diet-related obesity.

[2] = system: HUVEC cells; assay: Apoptosis assay in HUVEC (propidium iodide, chromatin fragmentation); assay type: cell-based, human
Method: FIG. 26. Penetratin peptide chimera binding to the β5 cytoplasmic domain induces programmed cell death. 10^6 HUVEC cells were harvested in complete media and 15 μM penetratin peptide chimeras were added to the cells. […] (a) Profile obtained with starved cells after 24 h. (b) Confluent cells in complete media. (c) 15 μM of penetratin after four hours. (d) 15 μM of VISY-penetratin chimera after four hours.
FIG. 30. Chimeric peptide containing VISY peptide linked to penetratin (antennapedia) induces apoptosis. VISY induced apoptosis was inhibited by addition of a caspase inhibitor (zVAD).
Approximately 1×10^6 cells were harvested in complete media and 15 AM of peptide added for 4, 8, or 12 h. The cellswere then washed in PBS and resuspended in 0.5 ml propidium iodide solution (50 μg/ml PI, 0.1% Triton X-100, 0.1% sodium citrate). After a 24-h incubation at 4° C., cells were counted with a XL Coulter (Coulter Corporation) with a 488-nm laser; 12,000 cells were counted for each histogram, and cell cycle distributions were analyzed with Multicycle program.
Approximately 1×10^6 cells were harvested in complete medium, and 15 μM of peptide was added for 4, 8, or 12 hours. The cells were then washed in PBS and resuspended in 0.5 ml propidium iodide solution (50 μg/ml PI, 0.1% Triton X-100, 0.1% sodium citrate). After a 24-h incubation at 4° C., the cells were counted with an XL Coulter (Coulter Corporation) with a 488 nm laser; 12,000 cells were counted for each histogram, and cell cycle distributions were analyzed with the Multicycle program.
10^6 HUVEC were treated with 15 μM of VISY antennapedia (penetratin) chimera or 15 μM of antennapedia peptide (pentratin) alone for 2-4 hours and chromatin fragmentation was analyzed by electrophoresis in an agarose gel.

[3] = target: T1, prohibition receptor protein complex (Mus musculus, UniProt P67778); assay: Adipose receptor protein binding and immunoprecipitation
T1 construct: from tissue; host or cells: mouse adipose tissue extract
T1 sequence (P67778 2-272 limits assumed): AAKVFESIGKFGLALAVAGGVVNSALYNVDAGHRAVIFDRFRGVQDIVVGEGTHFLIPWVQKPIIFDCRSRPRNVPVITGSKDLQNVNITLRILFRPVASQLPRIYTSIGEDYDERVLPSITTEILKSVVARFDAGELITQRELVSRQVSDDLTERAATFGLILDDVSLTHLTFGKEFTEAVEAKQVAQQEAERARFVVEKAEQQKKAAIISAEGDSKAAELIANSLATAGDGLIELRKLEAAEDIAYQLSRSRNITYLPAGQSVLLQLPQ
Method: A band of approximately 35,000 Daltons (35 kDa) was isolated from mouse adipose tissue extract that bound to […] (SEQ ID NO:22) conjugated to (KLAKLAK)2 (SEQ ID NO:1). […] The 35 kDa band was analyzed by mass spectrometry, which identified three proteins present in the sample.
The three proteins included predominately a B cell receptor associated protein (prohibition), apolipoprotein E, and the voltage dependent anion channel (VDAC). Further studies were performed by immunoprecipitation, using either […] (SEQ ID NO:22) or CARAC (SEQ ID NO:12) conjugated to (KLAKAK)2 (SEQ ID NO:1) and precipitating with commercially available antibodies.
It is unknown whether those proteins bound to the CARAC (SEQ ID NO:12) moiety or to (KLAKAK)2 (SEQ ID NO:1).

[4] = system: SK-RC-49/APA cells; assay: Phage binding specificity assay on SK-RC-49/APA cells; assay type: cell-based; conditions: phage displaying the peptide insert, data not shown
Method: The cell binding assay was performed with an input of 10^9 TU as described for the cell panning. The specificity was confirmed by adding […] (SEQ ID NO:56) peptide to the binding medium in increasing concentrations. For phage binding on immunocaptured APA, wells were blocked for 1 h at room temperature with PBS/3% BSA and incubated with 10^9 TU for 1 h at room temperature in 50 μl PBS/3% BSA. After eight washes in PBS/1% BSA/0.01% Tween-20 and two washes in PBS, phage were rescued by adding 200 μl of exponentially growing K91Kan E. coli. Each experiment was repeated at least three times.

[5] = target: T2, β3 integrin cytoplasmic domain (Homo sapiens, UniProt P05106); assay: Binding of Fyn-phosphorylated phage to β3 cytoplasmic domain; conditions: for Phos/Unphos: Fyn-phosphorylated versus unphosphorylated phage; for β3 or β5/BSA / β3 or β5/GST: X4YX4 library phosphorylated with Fyn
T2 sequence (P05106 742-788 limits assumed): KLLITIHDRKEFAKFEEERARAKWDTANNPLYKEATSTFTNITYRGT
Method: (§1) Phosphorylation of peptide libraries with src family protein kinases (Fyn, c-Src, Lyn, and Syc) and serine/threonine kinases such as a MAP kinase were performed as described previously (Schmitz et al., 1996; Dente et al., 1997; Gram et al., 1997). Briefly, phage particles were collected from culture supernatants by double precipitation with 20% polyethylene glycol 8000 in 2.5 M NaCl. Particles were dissolved at 10^12 particles/ml. Purified phage (10 μl) were incubated for 3 hours at room temperature with different concentrations (35 to 3,500 units) of protein kinases in a reaction buffer volume of 50 μl. The reaction mixtures were transferred to tubes containing 10 μg of agarose-conjugated anti-P-Tyr, anti-P-Ser, or anti-P-Thr monoclonal antibodies to select phage displaying phosphorylated peptides. Bound phage were eluted by washing the column with 0.3 ml of elution buffer (0.1 M NaCl/glycine/1 mg/ml BSA, pH 2.35). The eluates were neutralized with 2 M Tris-base and incubated with 2 ml of a mid-log bacteria culture. Aliquots of 20 μl were removed for plating, and phage were harvested as described. The phosphorylation-selection step was repeated. Phosphorylated peptides binding to β3 and β5 cytoplasmic domains were analyzed as described in the previous section.
(§2) Randomly selected clones from rounds III and IV were sequenced from a X4YX4 phosphorylated library with Fyn. Amino acid sequences of the phagemid encoded peptides were deduced from nucleotide sequences. […] The ratio of binding to β3 or β5 was calculated by dividing the number of β3 or β5 colonies by GST or BSA colonies found after panning. The ratio of binding to β3 or β5 with phosphorylated phage by Fyn versus unphosphorylated phage was calculated by dividing the number of colonies found after the panning.
(§3) The effect of phosphorylation on the affinity and specificity of the cytoplasmic domain-binding was examined. Phage displaying the β3 and β5 cytoplasmic domain-binding peptides were phosphorylated in vitro as previously described (Schmitz et al., 1996; Dente et al., 1997; Gram et al., 1997), using Fyn kinase. Specific phosphorylation of the tyrosine-containing peptide on the surface of the phage was confirmed by using ^32P-gamma […] in the kinase reaction and by separating the phage pIII protein by SDS-PAGE.

[6] = target: T3, β5 integrin cytoplasmic domain (Homo sapiens, UniProt P18084); assay: Binding of Fyn-phosphorylated phage to β5 cytoplasmic domain; conditions: for Phos/Unphos: Fyn-phosphorylated versus unphosphorylated phage; for β3 or β5/BSA / β3 or β5/GST: X4YX4 library phosphorylated with Fyn
T3 construct: screenings involving the β5 cytoplasmic domain fusion protein
T3 sequence (P18084 743-799 limits assumed): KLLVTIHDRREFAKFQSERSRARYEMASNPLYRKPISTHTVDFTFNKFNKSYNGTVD
Method: as §1, §2, §3

Compound: CC(C)C[C@@H](NC(=O)[C@@H](CCCCN)NC(=O)CNC(=O)CNC(=O)[C@@H]1CSSC[C@H](N)C(=O)N[C@@H](CCCCN)C(=O)NCC(=O)NCC(=O)N[C@@H](CCCNC(=N)N)C(=O)N[C@@H](C)C(=O)N[C@@H](CCCCN)C(=O)N[C@@H](CC(=O)O)C(=O)N1)C(=O)N[C@H](C)C(=O)N[C@H](CCCCN)C(=O)N[C@H](CC(C)C)C(=O)N[C@H](C)C(=O)N[C@H](CCCCN)C(=O)N[C@H](CCCCN)C(=O)N[C@H](CC(C)C)C(=O)N[C@H](C)C(=O)N[C@H](CCCCN)C(=O)N[C@H](CC(C)C)C(=O)N[C@H](C)C(=O)N[C@H](CCCCN)C(=O)O (H-CKGGRAKDCGG[dK][dL][dA][dK][dL][dA][dK][dK][dL][dA][dK][dL][dA][dK]-OH; disulfide 1-9)
- mortality in genetically obese mice ([1]; genetically obese mice, not in normal obese mice): occasionally observed to result in mortality within a few days of injection
- abnormalities in other organs ([1]; mouse, in vivo): No abnormalities in other organs

Compound: COC(=O)C[C@H](NC(=O)[C@H](C)NC(=O)[C@@H](NC(=O)OCc1ccccc1)C(C)C)C(=O)CF [zVAD, reference compound] (Cbz-Val-Ala-Asp(OMe)-CH2F)
- inhibition of VISY chimeric peptide induced apoptosis ([2]; added to the media at the same time as the VISY chimeric peptide): up to 70%

Compound: CARAC-(KLAKLAK)2: control CARAC (SEQ ID NO:12) fused to (KLAKLAK)2 (SEQ ID NO:1) (CARACKLAKLAKKLAKLAK) [reference compound]
- histopathological analysis of white fat ([1]; TUNEL, hematoxylin/eosin): no vascular apoptosis or fat necrosis
- body mass change (in words) ([1]; high-fat cafeteria diet-fed obese C57BL/6 mice, equimolar amount, sc daily): did not show a significant body mass decrease
- binding of 35 kDa band from mouse adipose tissue extract ([3]; data not shown): much less binding
- binding to VDAC, prohibition and apolipoprotein E ([3]; immunoprecipitation): low levels of non-specific binding to all three proteins

Compound: CGTGCAVECEVVC
- selective binding of phage to SK-RC-49/APA cells [4]: no selective binding

Compound: CKGGRAKDC
- enrichment of prohibition receptor protein complex in precipitated fraction compared to CARAC precipitated fraction ([3]; immunoprecipitation, SDS-PAGE, data not shown): over a ten-fold enrichment

Compound: GGGSYRHVE
- Phos/Unphos [5]: 13.2
- β3 or β5/BSA [5]: 5.3
- β3 or β5/GST [5]: 1.5

Compound: MLLGYRFEK
- Phos/Unphos [5]: 2.5
- β3 or β5/BSA [5]: 2.7
- β3 or β5/GST [5]: 3.5

Compound: TLRKYFHSS
- Phos/Unphos [6]: 3.8
- β3 or β5/BSA [6]: 15.2
- β3 or β5/GST [6]: 3.8

Compound: TMLRYFMFP
- Phos/Unphos [6]: 4.2
- β3 or β5/BSA [6]: 3.8
- β3 or β5/GST [6]: 2.3

Compound: TMLRYTVRL
- Phos/Unphos [6]: 14.3
- β3 or β5/BSA [6]: 2.2
- β3 or β5/GST [6]: 3.4

Compound: VISY-penetratin chimera: VVISYSMPD (β5 cytoplasmic domain-binding peptide) coupled to penetratin, plus a biotin moiety (VVISYSMPDRQIKIWFQNRRMKWKK; also: biotin moiety, place not given here)
- induction of apoptosis (chromatin fragmentation) ([2]; 10^6 HUVEC, 15 μM, 2-4 hours): induction of apoptosis
- induction of apoptosis (propidium iodide staining) ([2]; HUVEC, 15 μM, four hours): induction of apoptosis
